In patent US20220153873A1 (ICAHN SCHOOL OF MEDICINE AT MOUNT SINAI, published 2022):
Read-outs that look alike come from different tables or passages of the source.

How the values were obtained:
[1] = target: recombinant neuraminidase (rNA) of B/Malaysia/2506/04 (influenza B virus B/Malaysia/2506/04)
[2] = target: recombinant neuraminidase (rNA) of B/Florida/04/06 (influenza B virus B/Florida/04/06); assay: ELISA, rNA B/Florida/4/2006 coated at 2 ug/mL
[3] = target: recombinant neuraminidase (rNA) of B/Florida/04/06 (influenza B virus B/Florida/04/06); assay: ELISA, biotinylated 1F2 on rNA B/Florida/04/2006, no competitor
[4] = target: recombinant neuraminidase (rNA) of B/Florida/04/06 (influenza B virus B/Florida/04/06)
[5] = target: neuraminidase of B/Lee/40 (purified whole virus) (influenza B virus B/Lee/40, UniProt P03474 1-466); assay: ELISA on purified whole virus
[6] = target: recombinant neuraminidase (rNA) of B/Florida/04/06 (influenza B virus B/Florida/04/06); remark: listed apart in the source
[7] = target: recombinant neuraminidase (rNA) of B/Malaysia/2506/04 (influenza B virus B/Malaysia/2506/04); assay: ELISA, rNA B/Malaysia/2506/04 coated at 2 ug/mL
[8] = target: recombinant neuraminidase (rNA) of B/Florida/04/06 (influenza B virus B/Florida/04/06); assay: ELISA, biotinylated 3G1 on rNA B/Florida/04/2006, no competitor
[9] = target: neuraminidase of wild type B/Malaysia/2506/04 virus (on virus and on infected MDCK cells) (influenza B virus B/Malaysia/2506/04); assay: cell-based or functional assay
[10] = target: recombinant neuraminidase (rNA) of B/Florida/04/06 (influenza B virus B/Florida/04/06); assay: ELISA, biotinylated 4B2 on rNA B/Florida/04/2006, no competitor

neuraminidase of B/Lee/40 (purified whole virus), sequence (P03474 whole entry): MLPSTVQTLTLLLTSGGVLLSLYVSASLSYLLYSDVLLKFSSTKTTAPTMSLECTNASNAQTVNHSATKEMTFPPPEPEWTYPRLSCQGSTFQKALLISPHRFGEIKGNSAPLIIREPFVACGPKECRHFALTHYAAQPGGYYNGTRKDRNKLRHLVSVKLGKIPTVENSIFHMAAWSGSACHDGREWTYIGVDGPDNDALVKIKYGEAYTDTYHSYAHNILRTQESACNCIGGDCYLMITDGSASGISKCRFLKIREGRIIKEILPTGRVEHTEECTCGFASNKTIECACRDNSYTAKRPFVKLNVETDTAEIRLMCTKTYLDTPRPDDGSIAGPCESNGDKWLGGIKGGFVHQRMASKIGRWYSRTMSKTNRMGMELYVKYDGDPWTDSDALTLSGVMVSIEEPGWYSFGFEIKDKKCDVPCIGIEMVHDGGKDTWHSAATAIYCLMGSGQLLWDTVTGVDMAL

B1: recombinant 1F2 IgG2a (antibody, V domains shown)
VH: QVHLQQSGPEVARPGASVKLSCKASGYTFTDYYLNWVKQRPRQGLEWIGQIHPGSTNTYYNEKFKGKATLTADKSSSTAYMQLSSLTSEDSAVYFCARSLGDGYYVYAMDYWGQGTAVTVSS
VL: DIVMTQSQKFMSTSVGDRVSVTCKASQNVVTNVVWYQQKPGQSPKPLIYSASYRYSGVPDRFTGSGSGTDFTLTISNVQSEDLAEYCCQQYHSYPFTFGSGTKLEVK
Kd [1]: 680 pM | EC50 (read off the curve) [2]: 0.03 µg/mL

B2: recombinant 1F2 monomeric IgA (antibody, V domains shown)
VH: QVHLQQSGPEVARPGASVKLSCKASGYTFTDYYLNWVKQRPRQGLEWIGQIHPGSTNTYYNEKFKGKATLTADKSSSTAYMQLSSLTSEDSAVYFCARSLGDGYYVYAMDYWGQGTAVTVSS
VL: DIVMTQSQKFMSTSVGDRVSVTCKASQNVVTNVVWYQQKPGQSPKPLIYSASYRYSGVPDRFTGSGSGTDFTLTISNVQSEDLAEYCCQQYHSYPFTFGSGTKLEVK
Kd [1]: 958 pM

B3: recombinant 1F2 IgG2b (antibody, V domains shown)
VH: QVHLQQSGPEVARPGASVKLSCKASGYTFTDYYLNWVKQRPRQGLEWIGQIHPGSTNTYYNEKFKGKATLTADKSSSTAYMQLSSLTSEDSAVYFCARSLGDGYYVYAMDYWGQGTAVTVSS
VL: DIVMTQSQKFMSTSVGDRVSVTCKASQNVVTNVVWYQQKPGQSPKPLIYSASYRYSGVPDRFTGSGSGTDFTLTISNVQSEDLAEYCCQQYHSYPFTFGSGTKLEVK
Kd [1]: 1160 pM | EC50 (read off the curve) [2]: 0.03 µg/mL

B4: recombinant 1F2 IgG1 (antibody, V domains shown)
VH: QVHLQQSGPEVARPGASVKLSCKASGYTFTDYYLNWVKQRPRQGLEWIGQIHPGSTNTYYNEKFKGKATLTADKSSSTAYMQLSSLTSEDSAVYFCARSLGDGYYVYAMDYWGQGTAVTVSS
VL: DIVMTQSQKFMSTSVGDRVSVTCKASQNVVTNVVWYQQKPGQSPKPLIYSASYRYSGVPDRFTGSGSGTDFTLTISNVQSEDLAEYCCQQYHSYPFTFGSGTKLEVK
Kd [1]: 1050 pM | EC50 (read off the curve) [2]: 0.05 µg/mL

B5: 1F2 antibody (murine IgG2a, hybridoma-produced) (antibody, V domains shown)
VH: QVHLQQSGPEVARPGASVKLSCKASGYTFTDYYLNWVKQRPRQGLEWIGQIHPGSTNTYYNEKFKGKATLTADKSSSTAYMQLSSLTSEDSAVYFCARSLGDGYYVYAMDYWGQGTAVTVSS
VL: DIVMTQSQKFMSTSVGDRVSVTCKASQNVVTNVVWYQQKPGQSPKPLIYSASYRYSGVPDRFTGSGSGTDFTLTISNVQSEDLAEYCCQQYHSYPFTFGSGTKLEVK
notes: also called mAb 1F2; IF2
EC50 (read off the curve) [3]: 0.02 µg/mL | EC50 (read off the curve) [2]: 0.03 µg/mL | EC50 (read off the curve) [4]: 0.2 µg/mL | binding result [5]: binds

B6: 1F4 antibody (murine IgG2a, hybridoma-produced) (antibody, V domains shown)
VH: QVHLQQSGSELRSPGSSVKLSCKDFDSEVFPIVYMRWIRQKPGHGFEWIGDILPSFGRTIYGEKFEDKATLDADTVSNTAYLELNSLTSEDSAIYYCARGDHGNWLAYWGQGTLVTVSA
VL: DIVMTQSHKFMSTSVGDRVTITCKASQDVSTAVAWYQQKPGQSPKLLIYWASTRHTGVPNRFTGIISGTDYTLTISSVQAEDLALYYCQQHYSAPWTFGGGTKLEIK
notes: also called mAb 1F4; IF4
EC50 (read off the curve) [6]: 0.04 µg/mL | binding result [5]: binds

B7: recombinant 4F11 IgG2b (antibody, V domains shown)
VH: DVKLVESGGDLVKPGGSLKLSCAASGFTFSAYSMSWVRQTPERRLEWVATINTGGSFTYYPDSVKGRFTISRDNAKNTLYLQMSSLKSEDTAMYFCTRVSDYGNSAYFPYWGQGTLVIVSA
VL: QVVLTQSPALISASPGEKVTMTCSASSNVNYMSWYQQRPRSSPKPWIYLTSKLASGVPPRFSGSGSGTSYSLTISSMEAEDVATYYCQQWSSDPQTFGGGTKVEIK
Kd [1]: 2.98 pM | EC50 (read off the curve) [7]: 0.07 µg/mL

B8: recombinant 4F11 IgG2a (antibody, V domains shown)
VH: DVKLVESGGDLVKPGGSLKLSCAASGFTFSAYSMSWVRQTPERRLEWVATINTGGSFTYYPDSVKGRFTISRDNAKNTLYLQMSSLKSEDTAMYFCTRVSDYGNSAYFPYWGQGTLVIVSA
VL: QVVLTQSPALISASPGEKVTMTCSASSNVNYMSWYQQRPRSSPKPWIYLTSKLASGVPPRFSGSGSGTSYSLTISSMEAEDVATYYCQQWSSDPQTFGGGTKVEIK
Kd [1]: 3.36 pM

B9: recombinant 4F11 monomeric IgA (antibody, V domains shown)
VH: DVKLVESGGDLVKPGGSLKLSCAASGFTFSAYSMSWVRQTPERRLEWVATINTGGSFTYYPDSVKGRFTISRDNAKNTLYLQMSSLKSEDTAMYFCTRVSDYGNSAYFPYWGQGTLVIVSA
VL: QVVLTQSPALISASPGEKVTMTCSASSNVNYMSWYQQRPRSSPKPWIYLTSKLASGVPPRFSGSGSGTSYSLTISSMEAEDVATYYCQQWSSDPQTFGGGTKVEIK
Kd [1]: 4.72 pM

B10: recombinant 4F11 IgG1 (antibody, V domains shown)
VH: DVKLVESGGDLVKPGGSLKLSCAASGFTFSAYSMSWVRQTPERRLEWVATINTGGSFTYYPDSVKGRFTISRDNAKNTLYLQMSSLKSEDTAMYFCTRVSDYGNSAYFPYWGQGTLVIVSA
VL: QVVLTQSPALISASPGEKVTMTCSASSNVNYMSWYQQRPRSSPKPWIYLTSKLASGVPPRFSGSGSGTSYSLTISSMEAEDVATYYCQQWSSDPQTFGGGTKVEIK
Kd [1]: 8.91 pM

B11: 4F11 antibody (murine IgG2b, hybridoma-produced) (antibody, V domains shown)
VH: DVKLVESGGDLVKPGGSLKLSCAASGFTFSAYSMSWVRQTPERRLEWVATINTGGSFTYYPDSVKGRFTISRDNAKNTLYLQMSSLKSEDTAMYFCTRVSDYGNSAYFPYWGQGTLVIVSA
VL: QVVLTQSPALISASPGEKVTMTCSASSNVNYMSWYQQRPRSSPKPWIYLTSKLASGVPPRFSGSGSGTSYSLTISSMEAEDVATYYCQQWSSDPQTFGGGTKVEIK
notes: also called mAb 4F11; 4F11 Hybridoma
EC50 (read off the curve) [7]: 0.06 µg/mL | binding result [5]: binds

B12: 3G1 antibody (murine IgG2a, hybridoma-produced) (antibody, V domains shown)
VH: QVQLQQSGAELMKPGASVKISCKATGYKFTSYWIGWVKQRPGHGLEWCGEIFPGSGSINYNEKFKGKATFTADTSSNTAYLQLTSLTSEDSAVYYCARGEDYYGSSYGAMDYWGQGTSLTVSS
VL: DVQITQSPSYLAASPGETITINCRASKSISKYVAWYQEKPGRTNKVLIYSGSILSFGNPSRFSGSGSGTDFTLTISSLEPEDFAMYYCQQHNEYPWTFGGGTKLEIK
notes: also called mAb 3G1
EC50 (read off the curve) [8]: 0.07 µg/mL | NI activity, NA-Star assay (percent inhibition) [9]: 100% | binding result [5]: binds

B13: 4B2 antibody (murine IgG2a, hybridoma-produced) (antibody, V domains shown)
VH: QIQLVQSGPELKKPGETVKISCKASGFTFTDYPMHWVKQAPGKSLKWMGWINTETEEPTYSDDFKGRFALSLETSASTTYLQINNLKNEDTATYFCARSGYYYGSTYAWFGYWGQGTLVTVSA
VL: DVVMTQIPLSLPVSLGDQASISCRSSQSLIHTNGDTFLHWYLQKPGQSPKLLIYKVSNRFSGVPDRFTGGGSGTDFTLKISRVEAEDLGIYFCSQSALFPYTFGGGTNLEIK
notes: also called mAb 4B2
EC50 (read off the curve) [10]: 0.1 µg/mL | binding result [5]: binds
